According to publication PMC8104898:

Molecular target: fibronectin fragment FN7-10 (type III domains 7 to 10), wild type
Test: ELISA

recombinant integrin α5(N275A)β1 ectodomain, unclasped (from UniProt P08648;P05556) (complex)
reduction of binding against the wild-type ectodomain: 60%
